Results: PMC2396876 (The EMBO Journal, 2008)
Several values for one entry are separate records, joined by “and”; a condition that tells them apart may be missing. Equal values may be shown once.

Key:
[1] = target: N‐CEACAM1, the N‐terminal domain of human carcinoembryonic antigen‐related cell adhesion molecule 1 (human); test: AUC
[2] = target: UspA1^(527–665), recombinant fragment of the Moraxella catarrhalis MX2 adhesin UspA1 (Moraxella catarrhalis (strain MX2)); test: AUC
[3] = target: UspA1^(527–665), recombinant fragment of the Moraxella catarrhalis MX2 adhesin UspA1 (Moraxella catarrhalis (strain MX2)); test: ITC
[4] = target: UspA1^(527–665) A568Q (Moraxella catarrhalis (strain MX2)); test: western blot of oligomers
[5] = target: UspA1^(527–665) A588Q (Moraxella catarrhalis (strain MX2)); test: western blot of oligomers
[6] = target: UspA1^(527–665) A590Q (Moraxella catarrhalis (strain MX2)); test: western blot of oligomers
[7] = target: UspA1^(527–665) L583A (Moraxella catarrhalis (strain MX2)); test: western blot of oligomers
[8] = target: UspA1^(527–665) M586A (Moraxella catarrhalis (strain MX2)); test: western blot of oligomers
[9] = target: UspA1^(527–665), recombinant fragment of the Moraxella catarrhalis MX2 adhesin UspA1 (Moraxella catarrhalis (strain MX2)); test: crystal structure
[10] = target: UspA1^(527–665) M586A (Moraxella catarrhalis (strain MX2)); test: far-Western, overlay or dot blot
[11] = target: UspA1^(527–665) M586A/A588Q (Moraxella catarrhalis (strain MX2)) (UniProt Q9XD56); test: far-Western, overlay or dot blot
[12] = target: the molecule itself; test: western blot of oligomers

## N‐CEACAM1, the N‐terminal domain of human carcinoembryonic antigen‐related cell adhesion molecule 1 (domain or fragment)
[1]
  stoichiometry N (chains in the oligomer): 2
[2]
  stoichiometry N (N‐CEACAM1 per UspA1^(527–665) trimer): 2
[3]
  Kd: 35 nM
  stoichiometry N (N‐CEACAM1 per UspA1^(527–665) trimer): 2.1 and 1.9

## UspA1^(527–665) A568Q (domain or fragment)
[4]
  stoichiometry N (chains in the oligomer): 3

## UspA1^(527–665) A588Q (domain or fragment)
[5]
  stoichiometry N (chains in the oligomer): 3

## UspA1^(527–665) A590Q (domain or fragment)
[6]
  stoichiometry N (chains in the oligomer): 3

## UspA1^(527–665) L583A (domain or fragment)
[7]
  stoichiometry N (chains in the oligomer): 3

## UspA1^(527–665) M586A (domain or fragment)
[8]
  stoichiometry N (chains in the oligomer): 3

## UspA1^(527–665), recombinant fragment of the Moraxella catarrhalis MX2 adhesin UspA1 (domain or fragment)
[9]
  stoichiometry N (chains in the oligomer): 3
[2]
  stoichiometry N (chains in the oligomer): 3

## soluble CEACAM1‐Fc receptor (from UniProt P13688 35-428) (Fc fusion)
[10]
  decrease in CEACAM1 binding (densitometry, against native UspA1^(527–665)): 14.8%
[11]
  decrease in CEACAM1 binding (densitometry, against native UspA1^(527–665)): 90.4%

B1: UspA1^(527–665) M586A/A588Q (domain or fragment, Moraxella catarrhalis (strain MX2), UniProt Q9XD56 527-665, looked up)
chain: ASSANTDRIATAELGIAENKKDAQIAKAQANENKDGIAKNQADIQLHDKKITNLGILHSAVQRAVGNNTQGVATNKADIAKNQADIANNIKNIYELAQQQDQHSSDIKTLAKVSAANTDRIAKNKAEADASFETLTKNQ
[12]
  stoichiometry N: 3 chains in the oligomer
